This note sets out measurements from PMC3796444 (PLoS ONE, 2013).

Changes are numbered by the printed parent chain. Names and notes keep the numbering of the source.

Data set [1] concerns the target Hsc70 chaperones of the rabbit reticulocyte lysate (rabbit (endogenous in rabbit reticulocyte lysate)). The experiment in a line: co-IP; AGT variants made with 35S-Met in rabbit reticulocyte lysate (TnT) at 30°C for 2 h, stopped with cycloheximide; immunoprecipitation with anti-Hsc70 antibodies; SDS-PAGE and fluorography.
Data set [2] deals with T1, alanine:glyoxylate aminotransferase (AGT), AGT WT (major allele) (Homo sapiens, UniProt P21549).
T1 construct: gene AGXT; His-tagged full-length AGT from pCOLDII, expressed in E. coli BL21, IMAC and SEC; about 90 kDa dimer
T1 sequence (P21549 1-392): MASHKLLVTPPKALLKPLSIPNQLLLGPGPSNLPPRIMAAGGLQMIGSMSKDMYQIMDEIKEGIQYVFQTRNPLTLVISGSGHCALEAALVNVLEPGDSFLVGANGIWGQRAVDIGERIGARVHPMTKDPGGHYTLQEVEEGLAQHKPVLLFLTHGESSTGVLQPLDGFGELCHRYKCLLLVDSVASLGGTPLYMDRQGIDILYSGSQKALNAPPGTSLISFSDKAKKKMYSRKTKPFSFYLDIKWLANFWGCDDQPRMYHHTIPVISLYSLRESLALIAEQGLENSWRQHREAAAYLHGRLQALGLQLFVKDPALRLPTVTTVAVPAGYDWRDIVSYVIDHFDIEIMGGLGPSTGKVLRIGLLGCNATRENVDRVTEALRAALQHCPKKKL
Description: filtration ([…] kDa cut-off) and UV absorption of released PMP. Format: binding. The following applies: holo-enzyme 36 µM monomer with L-Ala, 1 h, 25°C.

Data set [3] concerns the molecule itself. The experiment in a line: SEC; purified recombinant AGT variants; single peak, elution volume of a ≈90 kDa dimer; data not shown. For orientation: Size exclusion chromatography separates by hydrodynamic size, large species first.
Substrate in data set [4]: O=CC(=O)O
Description: LDH-coupled pyruvate assay, global double-displacement fit. The data set is classed as biochemical, Homo sapiens. The following applies: L-alanine 0-100 mM, 150 µM PLP, 0.1 M Na-phosphate pH 8, 25°C. An excerpt:
(§1) LDH-coupled pyruvate assay, global double-displacement fit on alanine:glyoxylate aminotransferase (AGT), AGT WT (major allele)

Substrate in data set [5]: C[C@H](N)C(=O)O
The data set is described as above. Format: biochemical, Homo sapiens. As to conditions: glyoxylate 0-5 mM, 150 µM PLP, 0.1 M Na-phosphate pH 8, 25°C.
Source text: as §1

As for “alanine:glyoxylate aminotransferase p.P11L, made in a cell-free system (from UniProt P21549 1-392) (enzyme)”, the fold increase in immunoprecipitated AGT compared to WT in data set [1] came to 4 fold.

Molecule “alanine:glyoxylate aminotransferase p.P319L on the minor allele, made in a cell-free system (from UniProt P21549 1-392) (enzyme)” had a fold increase in immunoprecipitated AGT compared to WT in data set [1] of 7 fold.

As to “alanine:glyoxylate aminotransferase p.H83R on the minor allele, made in a cell-free system (from UniProt P21549 1-392) (enzyme)”, the fold increase in immunoprecipitated AGT compared to WT in data set [1] was determined as 4.8 fold.

As for “alanine:glyoxylate aminotransferase minor allele (p.P11L/I340M), made in a cell-free system (from UniProt P21549 1-392) (enzyme)”, in data set [1], the fold increase in immunoprecipitated AGT compared to WT was determined as 4 fold.

Regarding `Cc1ncc(COP(=O)(O)O)c(CN)c1O` [PMP], the “% PMP released” value in data set [2] was ~ 3%.

B1: alanine:glyoxylate aminotransferase p.I340M, recombinant His-tagged (enzyme, human)
chain: MASHKLLVTPPKALLKPLSIPNQLLLGPGPSNLPPRIMAAGGLQMIGSMSKDMYQIMDEIKEGIQYVFQTRNPLTLVISGSGHCALEAALVNVLEPGDSFLVGANGIWGQRAVDIGERIGARVHPMTKDPGGHYTLQEVEEGLAQHKPVLLFLTHGESSTGVLQPLDGFGELCHRYKCLLLVDSVASLGGTPLYMDRQGIDILYSGSQKALNAPPGTSLISFSDKAKKKMYSRKTKPFSFYLDIKWLANFWGCDDQPRMYHHTIPVISLYSLRESLALIAEQGLENSWRQHREAAAYLHGRLQALGLQLFVKDPALRLPTVTTVAVPAGYDWRDIVSYVMDHFDIEIMGGLGPSTGKVLRIGLLGCNATRENVDRVTEALRAAL
notes: alanine:glyoxylate aminotransferase (AGT), human, polymorphic variant p.I340M; Crystallised here (PDB 2YOB); source: E. coli BL21 (pCOLDII), purified (IMAC, SEC)
B1: in data set [3], the stoichiometry N (usually a count of units in the complex or per binding partner) stood at 2.

B2: alanine:glyoxylate aminotransferase, wild type (major allele), recombinant His-tagged (enzyme, human)
chain: T1 sequence (P21549 1-392)
notes: alanine:glyoxylate aminotransferase (AGT), human, major allele; also called AGT WT; WT; source: E. coli BL21 (pCOLDII), purified (IMAC, SEC)
In the case of B2, the Km (as a rule, the concentration of substrate that gives half-maximal velocity) in data set [4] stood at 0.245 ± 0.029 mM; in data set [5] it was 19.5 ± 1.4 mM. In addition, the “stoichiometry N” value in data set [3] is 2.

B3: alanine:glyoxylate aminotransferase p.H83R on the minor allele, recombinant His-tagged (enzyme, human, UniProt P21549 1-392, looked up)
chain: T1 sequence (P21549 1-392) with P11L, H83R, I340M
notes: alanine:glyoxylate aminotransferase (AGT), human, PH1 mutation p.H83R in the minor allele; source: E. coli BL21 (pCOLDII), purified (IMAC, SEC)
B3: the Km in data set [4] is 0.156 ± 0.019 mM; in data set [5], 42.4 ± 2.4 mM. In addition, the “stoichiometry N” value in data set [3] turned out to be 2.

B4: alanine:glyoxylate aminotransferase p.A295T on the minor allele, recombinant His-tagged (enzyme, human, UniProt P21549 1-392, looked up)
chain: T1 sequence (P21549 1-392) with P11L, A295T, I340M
notes: alanine:glyoxylate aminotransferase (AGT), human, rare variant p.A295T in the minor allele; source: E. coli BL21 (pCOLDII), purified (IMAC, SEC)
Regarding B4, the “stoichiometry N” value in data set [3] was found to be 2.

B5: alanine:glyoxylate aminotransferase p.F152I on the minor allele, recombinant His-tagged (enzyme, human, UniProt P21549 1-392, looked up)
chain: T1 sequence (P21549 1-392) with P11L, F152I, I340M
notes: alanine:glyoxylate aminotransferase (AGT), human, PH1 mutation p.F152I in the minor allele; source: E. coli BL21 (pCOLDII), purified (IMAC, SEC)
Regarding B5, the “stoichiometry N” value in data set [3] was 2.

B6: alanine:glyoxylate aminotransferase p.P319L on the minor allele, recombinant His-tagged (enzyme, human, UniProt P21549 1-392, looked up)
chain: T1 sequence (P21549 1-392) with P11L, P319L, I340M
notes: alanine:glyoxylate aminotransferase (AGT), human, PH1 mutation p.P319L in the minor allele; source: E. coli BL21 (pCOLDII), purified (IMAC, SEC)
On to B6, for which the “stoichiometry N” value in data set [3] came out at 2.

B7: alanine:glyoxylate aminotransferase p.I244T on the minor allele, recombinant His-tagged (enzyme, human, UniProt P21549 1-392, looked up)
chain: T1 sequence (P21549 1-392) with P11L, I244T, I340M
notes: alanine:glyoxylate aminotransferase (AGT), human, PH1 mutation p.I244T in the minor allele (p.P11L, p.I244T and p.I340M in cis); source: E. coli BL21 (pCOLDII), purified (IMAC, SEC)
In the case of B7, the “stoichiometry N” value in data set [3] came to 2.

B8: alanine:glyoxylate aminotransferase p.P11L, recombinant His-tagged (enzyme, human, UniProt P21549 1-392, looked up)
chain: T1 sequence (P21549 1-392) with P11L
notes: alanine:glyoxylate aminotransferase (AGT), human, polymorphic variant p.P11L; source: E. coli BL21 (pCOLDII), purified (IMAC, SEC)
Take B8: in data set [3], the “stoichiometry N” value turned out to be 2.

B9: alanine:glyoxylate aminotransferase p.A368T on the minor allele, recombinant His-tagged (enzyme, human, UniProt P21549 1-392, looked up)
chain: T1 sequence (P21549 1-392) with P11L, I340M, A368T
notes: alanine:glyoxylate aminotransferase (AGT), human, PH1 mutation p.A368T in the minor allele; source: E. coli BL21 (pCOLDII), purified (IMAC, SEC)
Regarding B9, the “stoichiometry N” value in data set [3] worked out at 2.

B10: alanine:glyoxylate aminotransferase p.G170R on the minor allele, recombinant His-tagged (enzyme, human, UniProt P21549 1-392, looked up)
chain: T1 sequence (P21549 1-392) with P11L, G170R, I340M
notes: alanine:glyoxylate aminotransferase (AGT), human, PH1 mutation p.G170R in the minor allele (p.P11L, p.G170R and p.I340M in cis); source: E. coli BL21 (pCOLDII), purified (IMAC, SEC)
With B10, the “stoichiometry N” value in data set [3] came to 2.

B11: alanine:glyoxylate aminotransferase minor allele (p.P11L/I340M), recombinant His-tagged (enzyme, human, UniProt P21549 1-392, looked up)
chain: T1 sequence (P21549 1-392) with P11L, I340M
notes: alanine:glyoxylate aminotransferase (AGT), human, minor allele; also called AGT LM; LM; source: E. coli BL21 (pCOLDII), purified (IMAC, SEC)
On to B11, for which the Km in data set [5] turned out to be 19.8 ± 1.5 mM. The “stoichiometry N” value in data set [3] was 2.

B12: alanine:glyoxylate aminotransferase p.R197Q on the minor allele, recombinant His-tagged (enzyme, human, UniProt P21549 1-392, looked up)
chain: T1 sequence (P21549 1-392) with P11L, R197Q, I340M
notes: alanine:glyoxylate aminotransferase (AGT), human, rare variant p.R197Q in the minor allele; source: E. coli BL21 (pCOLDII), purified (IMAC, SEC)
As for B12, the “stoichiometry N” value in data set [3] is 2.
